Test results from paper PMC9482650, “Quantitative fragmentomics allow affinity mapping of interactomes” (Nature Communications, 2022).

T1: GRIP1_5, Q9Y3R0
T1 sequence (Q9Y3R0 568-668, limits assumed, looked up): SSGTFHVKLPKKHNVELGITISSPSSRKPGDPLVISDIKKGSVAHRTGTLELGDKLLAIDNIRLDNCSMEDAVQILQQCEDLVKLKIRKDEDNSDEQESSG

T2: APBA2_2, Q99767
T2 sequence (Q99767 654-744, limits assumed, looked up): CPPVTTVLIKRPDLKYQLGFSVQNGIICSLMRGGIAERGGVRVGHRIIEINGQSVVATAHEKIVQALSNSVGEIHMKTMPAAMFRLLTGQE

T3: MPDZ_12, O75970
T3 sequence (O75970 1857-1958, limits assumed, looked up): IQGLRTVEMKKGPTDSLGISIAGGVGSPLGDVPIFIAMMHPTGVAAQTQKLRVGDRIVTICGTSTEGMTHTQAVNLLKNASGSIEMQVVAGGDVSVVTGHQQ

T4: NHERF3_4, Q5T2W1
T4 sequence (Q5T2W1 373-468, limits assumed, looked up): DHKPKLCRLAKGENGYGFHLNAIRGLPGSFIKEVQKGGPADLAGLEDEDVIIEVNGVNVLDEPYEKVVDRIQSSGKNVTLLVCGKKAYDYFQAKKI

T5: PTPN13_1, Q12923
T5 sequence (Q12923 1088-1188, limits assumed, looked up): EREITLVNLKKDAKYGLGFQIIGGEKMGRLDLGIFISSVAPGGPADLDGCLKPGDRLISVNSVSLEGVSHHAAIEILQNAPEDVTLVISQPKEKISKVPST

T6: SHANK1, Q9Y566
T6 sequence (Q9Y566 658-767, limits assumed, looked up): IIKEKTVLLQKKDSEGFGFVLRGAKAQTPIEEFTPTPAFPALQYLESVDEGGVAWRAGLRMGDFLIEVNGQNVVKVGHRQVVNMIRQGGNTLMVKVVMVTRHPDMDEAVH

T7: LNX2_2, Q8N448
T7 sequence (Q8N448 334-432, limits assumed, looked up): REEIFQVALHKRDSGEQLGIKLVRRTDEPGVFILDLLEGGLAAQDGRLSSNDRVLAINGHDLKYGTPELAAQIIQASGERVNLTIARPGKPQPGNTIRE

T8: HTRA4, P83105
T8 sequence (P83105 378-476, limits assumed, looked up): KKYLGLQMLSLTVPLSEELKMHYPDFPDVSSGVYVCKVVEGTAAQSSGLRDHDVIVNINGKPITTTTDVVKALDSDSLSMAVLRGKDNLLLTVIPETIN

T9: RAPGEF6, Q8TEU7
T9 sequence (Q8TEU7 525-625, limits assumed, looked up): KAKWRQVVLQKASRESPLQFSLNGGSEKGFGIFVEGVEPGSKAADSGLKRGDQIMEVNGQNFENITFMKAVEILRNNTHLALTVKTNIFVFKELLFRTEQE

T10: PDZD7_3, Q9H5P4
T10 sequence (Q9H5P4 857-944, limits assumed, looked up): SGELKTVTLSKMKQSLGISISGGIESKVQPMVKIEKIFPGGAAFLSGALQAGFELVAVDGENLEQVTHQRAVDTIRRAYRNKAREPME

T11: APBA3_1, O96018
T11 sequence (O96018 389-490, limits assumed, looked up): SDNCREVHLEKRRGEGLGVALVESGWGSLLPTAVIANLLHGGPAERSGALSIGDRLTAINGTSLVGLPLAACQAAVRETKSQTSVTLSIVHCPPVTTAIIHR


Target: Inadl_3, Q8NI35
Test: holdup assay
Design: key: below the threshold = too weak to quantify, mostly under pKd 3.1 to 4
Settings: plain residues with an end cap or a label only (N-terminal biotin on a linker: ado-ado)

Chain of Inadl_3, Q8NI35 (Q8NI35 359-469): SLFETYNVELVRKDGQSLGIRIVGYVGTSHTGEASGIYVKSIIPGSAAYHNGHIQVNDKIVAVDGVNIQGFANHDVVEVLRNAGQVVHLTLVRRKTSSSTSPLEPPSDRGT

Binder	pKd
PSHPRLQTHV [KIRREL2, Q6UWL6]	below the threshold
NVYGIESVKI [GRIA2, P42262]	below the threshold

Target: T1, GRIP1_5, Q9Y3R0
Test: holdup assay
Design: key: below the threshold = too weak to quantify, mostly under pKd 3.1 to 4
Settings: plain residues with an end cap or a label only (N-terminal biotin on a linker: ado-ado)

Binder	pKd
PSHPRLQTHV [KIRREL2, Q6UWL6]	below the threshold
NVYGIESVKI [GRIA2, P42262]	3.5

Target: DLG4_2, P78352
Test: holdup assay
Design: key: below the threshold = too weak to quantify, mostly under pKd 3.1 to 4
Settings: plain residues with an end cap or a label only (N-terminal biotin on a linker: ado-ado)

Chain of DLG4_2, P78352 (P78352 155-259): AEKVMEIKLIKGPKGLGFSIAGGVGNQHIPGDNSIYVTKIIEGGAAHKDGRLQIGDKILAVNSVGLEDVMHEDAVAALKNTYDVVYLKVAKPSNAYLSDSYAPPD

Binder	pKd
PSHPRLQTHV [KIRREL2, Q6UWL6]	4.48
NVYGIESVKI [GRIA2, P42262]	3.73

Target: T2, APBA2_2, Q99767
Test: holdup assay
Design: key: below the threshold = too weak to quantify, mostly under pKd 3.1 to 4
Settings: plain residues with an end cap or a label only (N-terminal biotin on a linker: ado-ado)

Binder	pKd
PSHPRLQTHV [KIRREL2, Q6UWL6]	below the threshold
NVYGIESVKI [GRIA2, P42262]	3.6

Target: DLG4_3, P78352
Test: holdup assay
Design: key: below the threshold = too weak to quantify, mostly under pKd 3.1 to 4
Settings: plain residues with an end cap or a label only (N-terminal biotin on a linker: ado-ado)

Chain of DLG4_3, P78352 (P78352 306-403): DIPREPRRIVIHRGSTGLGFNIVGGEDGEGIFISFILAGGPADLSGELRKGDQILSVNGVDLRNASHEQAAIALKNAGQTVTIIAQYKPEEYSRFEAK

Binder	pKd
PSHPRLQTHV [KIRREL2, Q6UWL6]	3.86
NVYGIESVKI [GRIA2, P42262]	below the threshold

Target: AHNAK1, Q09666
Test: holdup assay
Design: key: below the threshold = too weak to quantify, mostly under pKd 3.1 to 4
Settings: plain residues with an end cap or a label only (N-terminal biotin on a linker: ado-ado)

Chain of AHNAK1, Q09666 (Q09666 4-100): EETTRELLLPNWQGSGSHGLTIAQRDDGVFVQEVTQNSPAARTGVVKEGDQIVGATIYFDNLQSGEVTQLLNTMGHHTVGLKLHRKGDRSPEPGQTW

Binder	pKd
PSHPRLQTHV [KIRREL2, Q6UWL6]	below the threshold
NVYGIESVKI [GRIA2, P42262]	below the threshold

Target: Inadl_9, Q8NI35
Test: holdup assay
Design: key: below the threshold = too weak to quantify, mostly under pKd 3.1 to 4
Settings: plain residues with an end cap or a label only (N-terminal biotin on a linker: ado-ado)

Chain of Inadl_9, Q8NI35 (Q8NI35 1530-1615): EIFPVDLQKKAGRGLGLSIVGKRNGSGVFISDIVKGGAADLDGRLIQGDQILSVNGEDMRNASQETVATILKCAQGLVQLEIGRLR

Binder	pKd
PSHPRLQTHV [KIRREL2, Q6UWL6]	below the threshold
NVYGIESVKI [GRIA2, P42262]	below the threshold

Target: T3, MPDZ_12, O75970
Test: holdup assay
Design: key: below the threshold = too weak to quantify, mostly under pKd 3.1 to 4
Settings: plain residues with an end cap or a label only (N-terminal biotin on a linker: ado-ado)

Binder	pKd
PSHPRLQTHV [KIRREL2, Q6UWL6]	below the threshold
NVYGIESVKI [GRIA2, P42262]	3.61

Target: LNX1_2, Q8TBB1
Test: holdup assay
Design: key: below the threshold = too weak to quantify, mostly under pKd 3.1 to 4
Settings: plain residues with an end cap or a label only (N-terminal biotin on a linker: ado-ado)

Chain of LNX1_2, Q8TBB1 (Q8TBB1 371-470): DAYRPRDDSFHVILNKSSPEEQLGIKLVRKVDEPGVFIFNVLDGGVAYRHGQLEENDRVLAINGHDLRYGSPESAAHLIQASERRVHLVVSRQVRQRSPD

Binder	pKd
PSHPRLQTHV [KIRREL2, Q6UWL6]	below the threshold
NVYGIESVKI [GRIA2, P42262]	below the threshold

Target: DLG2_2, Q15700
Test: holdup assay
Design: key: below the threshold = too weak to quantify, mostly under pKd 3.1 to 4
Settings: plain residues with an end cap or a label only (N-terminal biotin on a linker: ado-ado)

Chain of DLG2_2, Q15700 (Q15700 189-283): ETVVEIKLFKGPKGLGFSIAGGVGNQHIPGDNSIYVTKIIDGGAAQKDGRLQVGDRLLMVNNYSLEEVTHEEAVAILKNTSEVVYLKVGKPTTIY

Binder	pKd
PSHPRLQTHV [KIRREL2, Q6UWL6]	4.28
NVYGIESVKI [GRIA2, P42262]	3.5

Target: MAGI2_6, Q86UL8
Test: holdup assay
Design: key: below the threshold = too weak to quantify, mostly under pKd 3.1 to 4
Settings: plain residues with an end cap or a label only (N-terminal biotin on a linker: ado-ado)

Chain of MAGI2_6, Q86UL8 (Q86UL8 1141-1229): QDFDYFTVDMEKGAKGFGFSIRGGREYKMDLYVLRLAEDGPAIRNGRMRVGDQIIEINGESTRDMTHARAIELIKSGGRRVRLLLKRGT

Binder	pKd
PSHPRLQTHV [KIRREL2, Q6UWL6]	below the threshold
NVYGIESVKI [GRIA2, P42262]	below the threshold

Target: T4, NHERF3_4, Q5T2W1
Test: holdup assay
Design: key: below the threshold = too weak to quantify, mostly under pKd 3.1 to 4
Settings: plain residues with an end cap or a label only (N-terminal biotin on a linker: ado-ado)

Binder	pKd
PSHPRLQTHV [KIRREL2, Q6UWL6]	below the threshold
NVYGIESVKI [GRIA2, P42262]	3.75

Target: DLG1_1, Q12959
Test: holdup assay
Design: key: below the threshold = too weak to quantify, mostly under pKd 3.1 to 4
Settings: plain residues with an end cap or a label only (N-terminal biotin on a linker: ado-ado)

Binder	pKd
PSHPRLQTHV [KIRREL2, Q6UWL6]	4.24
NVYGIESVKI [GRIA2, P42262]	below the threshold

Target: Inadl_1, Q8NI35
Test: holdup assay
Design: key: below the threshold = too weak to quantify, mostly under pKd 3.1 to 4
Settings: plain residues with an end cap or a label only (N-terminal biotin on a linker: ado-ado)

Chain of Inadl_1, Q8NI35 (Q8NI35 113-229): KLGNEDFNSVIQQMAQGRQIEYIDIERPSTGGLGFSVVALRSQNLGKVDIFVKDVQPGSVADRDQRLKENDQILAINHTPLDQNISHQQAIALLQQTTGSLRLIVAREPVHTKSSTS

Binder	pKd
PSHPRLQTHV [KIRREL2, Q6UWL6]	below the threshold
NVYGIESVKI [GRIA2, P42262]	below the threshold

Target: LNX1_1, Q8TBB1
Test: holdup assay
Design: key: below the threshold = too weak to quantify, mostly under pKd 3.1 to 4
Settings: plain residues with an end cap or a label only (N-terminal biotin on a linker: ado-ado)

Chain of LNX1_1, Q8TBB1 (Q8TBB1 261-371): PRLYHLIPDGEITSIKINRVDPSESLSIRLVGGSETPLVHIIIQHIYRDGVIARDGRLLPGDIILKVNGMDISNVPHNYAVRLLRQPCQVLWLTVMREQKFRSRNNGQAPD

Binder	pKd
PSHPRLQTHV [KIRREL2, Q6UWL6]	below the threshold
NVYGIESVKI [GRIA2, P42262]	4.07

Target: T5, PTPN13_1, Q12923
Test: holdup assay
Design: key: below the threshold = too weak to quantify, mostly under pKd 3.1 to 4
Settings: plain residues with an end cap or a label only (N-terminal biotin on a linker: ado-ado)

Binder	pKd
PSHPRLQTHV [KIRREL2, Q6UWL6]	below the threshold
NVYGIESVKI [GRIA2, P42262]	below the threshold

Target: MAGI2_5, Q86UL8
Test: holdup assay
Design: key: below the threshold = too weak to quantify, mostly under pKd 3.1 to 4
Settings: plain residues with an end cap or a label only (N-terminal biotin on a linker: ado-ado)

Chain of MAGI2_5, Q86UL8 (Q86UL8 915-1017): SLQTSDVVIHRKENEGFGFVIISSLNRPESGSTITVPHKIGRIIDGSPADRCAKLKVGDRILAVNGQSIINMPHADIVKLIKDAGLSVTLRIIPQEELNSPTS

Binder	pKd
PSHPRLQTHV [KIRREL2, Q6UWL6]	3.58
NVYGIESVKI [GRIA2, P42262]	below the threshold

Target: PTPN3, P26045
Test: holdup assay
Design: key: below the threshold = too weak to quantify, mostly under pKd 3.1 to 4
Settings: plain residues with an end cap or a label only (N-terminal biotin on a linker: ado-ado)

Chain of PTPN3, P26045 (P26045 505-587): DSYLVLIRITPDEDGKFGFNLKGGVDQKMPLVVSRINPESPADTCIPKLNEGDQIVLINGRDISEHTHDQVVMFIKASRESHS

Binder	pKd
PSHPRLQTHV [KIRREL2, Q6UWL6]	4.13
NVYGIESVKI [GRIA2, P42262]	below the threshold

Target: T6, SHANK1, Q9Y566
Test: holdup assay
Design: key: below the threshold = too weak to quantify, mostly under pKd 3.1 to 4
Settings: plain residues with an end cap or a label only (N-terminal biotin on a linker: ado-ado)

Binder	pKd
PSHPRLQTHV [KIRREL2, Q6UWL6]	3.84
NVYGIESVKI [GRIA2, P42262]	3.9

Target: T7, LNX2_2, Q8N448
Test: holdup assay
Design: key: below the threshold = too weak to quantify, mostly under pKd 3.1 to 4
Settings: plain residues with an end cap or a label only (N-terminal biotin on a linker: ado-ado)

Binder	pKd
PSHPRLQTHV [KIRREL2, Q6UWL6]	3.5
NVYGIESVKI [GRIA2, P42262]	3.85

Target: PDZRN4_1, Q6ZMN7
Test: holdup assay
Design: key: below the threshold = too weak to quantify, mostly under pKd 3.1 to 4
Settings: plain residues with an end cap or a label only (N-terminal biotin on a linker: ado-ado)

Chain of PDZRN4_1, Q6ZMN7 (Q6ZMN7 213-318): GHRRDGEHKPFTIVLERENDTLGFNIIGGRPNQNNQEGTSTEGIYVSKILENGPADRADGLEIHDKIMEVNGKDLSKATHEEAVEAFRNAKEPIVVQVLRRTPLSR

Binder	pKd
PSHPRLQTHV [KIRREL2, Q6UWL6]	below the threshold
NVYGIESVKI [GRIA2, P42262]	below the threshold

Target: T8, HTRA4, P83105
Test: holdup assay
Design: key: below the threshold = too weak to quantify, mostly under pKd 3.1 to 4
Settings: plain residues with an end cap or a label only (N-terminal biotin on a linker: ado-ado)

Binder	pKd
PSHPRLQTHV [KIRREL2, Q6UWL6]	3.6
NVYGIESVKI [GRIA2, P42262]	3.74

Target: T9, RAPGEF6, Q8TEU7
Test: holdup assay
Design: key: below the threshold = too weak to quantify, mostly under pKd 3.1 to 4
Settings: plain residues with an end cap or a label only (N-terminal biotin on a linker: ado-ado)

Binder	pKd
PSHPRLQTHV [KIRREL2, Q6UWL6]	below the threshold
NVYGIESVKI [GRIA2, P42262]	below the threshold

Target: FRMPD4, Q14CM0
Test: holdup assay
Design: key: below the threshold = too weak to quantify, mostly under pKd 3.1 to 4
Settings: plain residues with an end cap or a label only (N-terminal biotin on a linker: ado-ado)

Chain of FRMPD4, Q14CM0 (Q14CM0 67-160): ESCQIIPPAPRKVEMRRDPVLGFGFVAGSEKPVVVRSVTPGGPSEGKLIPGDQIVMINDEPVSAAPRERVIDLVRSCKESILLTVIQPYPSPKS

Binder	pKd
PSHPRLQTHV [KIRREL2, Q6UWL6]	below the threshold
NVYGIESVKI [GRIA2, P42262]	below the threshold

Target: LIMK2, P53671
Test: holdup assay
Design: key: below the threshold = too weak to quantify, mostly under pKd 3.1 to 4
Settings: plain residues with an end cap or a label only (N-terminal biotin on a linker: ado-ado)

Chain of LIMK2, P53671 (P53671 143-248): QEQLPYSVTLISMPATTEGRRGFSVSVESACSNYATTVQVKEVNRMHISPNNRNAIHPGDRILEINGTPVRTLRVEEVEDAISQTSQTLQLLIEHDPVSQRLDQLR

Binder	pKd
PSHPRLQTHV [KIRREL2, Q6UWL6]	below the threshold
NVYGIESVKI [GRIA2, P42262]	below the threshold

Target: T10, PDZD7_3, Q9H5P4
Test: holdup assay
Design: key: below the threshold = too weak to quantify, mostly under pKd 3.1 to 4
Settings: plain residues with an end cap or a label only (N-terminal biotin on a linker: ado-ado)

Binder	pKd
PSHPRLQTHV [KIRREL2, Q6UWL6]	4.61
NVYGIESVKI [GRIA2, P42262]	below the threshold

Target: T11, APBA3_1, O96018
Test: holdup assay
Design: key: below the threshold = too weak to quantify, mostly under pKd 3.1 to 4
Settings: plain residues with an end cap or a label only (N-terminal biotin on a linker: ado-ado)

Binder	pKd
PSHPRLQTHV [KIRREL2, Q6UWL6]	below the threshold
NVYGIESVKI [GRIA2, P42262]	below the threshold
